Values joined by “and” are separate entries in the source; they are usually repeats but may differ in a detail not shown here. Equal values may be shown once.
Legend:
[1] = test system: type-1 Lelystad PRRS virus; experiment: Strain-specific neutralization (FIG. 11), type 1 strain; format: cell-based, PRRSV
Method: (§1) In Vitro Viral Protection Prior to Viral Infection PAMs or MARC-145 cells were plated on 96 well plates (7×10^4/well) 24 hours prior to the experiment. Each well was washed twice with DPBS prior to treating the cells with various amounts of A505 (12.5 to 2000 pmole) at 37° C. for the indicated time points. Cells were then washed twice with DPBS and infected with 500 TCID50 LHVA-3 (or NVSL or VR-2332 or Lelystad) for 1 hour in enriched HBSS. Following incubation, cells were transferred to growth medium and incubated at 37° C. for 72 hours. Thereafter an MTT assay was implemented as described.

NVSL PRRS virus = experiment: MTT assay, in vitro protection of PAMs or MARC-145 cells from NVSL infection; format: cell-based, PRRSV; details: 500 pmole, compared to non-infected MARC-145 cells, FIG. 9b
Method: PAMs or MARC-145 cells were plated in 96 well plates (7×10^4/well) one day prior to the assay. Cells were washed twice with Dulbecco's phosphate buffered saline (DPBS) prior to an one (1) hour incubation with Hank's balanced salt solution (HBSS) supplemented with 25 mM HEPES and 4 mM sodium bicarbonate (pH 7.3) including 500TCID50 of LHVA-3 or 500TCID50 of NVSL in the presence or absence of the indicated aptamer concentration. Following infection, cells were incubated in growth medium at 37° C. for 72 hours. MTT assay was performed by adding 4 mg/ml MTT (3-[4,5-Dimethylthiazol-2-yl]-2,5-diphenyltetrazolium bromide dissolved in PBS to the cell cultures and incubation at 37° C. for 3 hours. Plates were then centrifuged at 800×g for 10 min. Supernatants were aspirated and the formazan dye was dissolved in 150 μl/well of isopropyl alcohol, and O.D. values were determined with an ELISA reader at 570 nm.
as §1, with “Following incubation, cells were transferred to growth medium and incubated at 37° C. for 72 hours. Thereafter an MTT assay was implemented as described.” left out

LHVA-93-3 PRRS virus [2] = experiment: In-vivo lung virus titer, LHVA-93-3, comparison with control oligonucleotide and Tilmicosin (Example 4); parameters: species or system swine; details: intra-nasal
Method: (§2) Swine were inoculated intranasally with sub-lethal infectious fluid containing 40TCID50/ml PRRS virus (LHVA-93-3) with or without 2.5 nmole A505 aptamer for different time intervals. Pig body weight was monitored for 2 weeks. Viral titer in the lungs was determined by the CPE titration method (OIE Terrestrial Manual—May 2015, Chapter 2.8.7—Porcine Reproductive and Respiratory Syndrome, section 1.1.3). Other pigs were sacrificed 6 days following viral inoculation and lungs were removed and homogenized in PBS 0.1% BSA (10% w/v). Following homogenization, samples were centrifuged to remove debris and stored at −80° C.
(§3) The cells/viruses were incubated for 2-5 days and observe daily for a CPE. At day 2, seed macrophages in new microtitre plates. Fifty (50) μl of the supernatants were transferred from the plates of the first passage to the corresponding wells of the freshly seeded plates (second passage). The wells were incubated for 2-5 days and observed daily for a CPE. The results of the CPE assays were presented as log TCID50.
Tilmicosin (Pulmotil®) was purchased from Eli Lilly (Elanco®), Canada.
Were implemented as described hereinabove. A dose of 15 ug/Kg of A505 was used.
The ability of the A505 aptamer to inhibit PRRSV infection was also compared to that of one of the currently available “anti-PRRSV” drugs, the antibiotic Tilmicosin. To this end, both A505 and Tilmicosin were administered once, together with the virus, using the intra-nasal route. As is shown in Table 2 below, a dose of 60 mg/pig of Tilmicosin (1 mg/kg body weight) reduced virus titer by 0.42 log TCID50, representing a 2.6-fold reduction in virus burden. This is in comparison to a reduction by 1.21 log TCID50 affected by A505 in this particular experiment (over 10 fold reduction in virus burden).

LHVA-93-3 PRRS virus [3] = experiment: Light microscopy and immunofluorescence of infected cells; format: cell-based, PRRSV
LHVA-93-3 PRRS virus [4] = experiment: In-vivo protection of swine from PRRSV infection (Example 3)
Method: Swine—SPF American Yorkshire swine at the age of 10-12 weeks were purchased. The selected swine were all exempt of PRRSV, SIV, and Mycoplasma Hyopneumoniae.
as §2, §3
For lung histology, pigs were sacrificed at day 7 and lungs were removed into 10% neutral buffered formalin (pH 7.0). Lungs were then sectioned and stained with haemotoxylin and eosin.
The antiviral properties of A505 were determined in vivo prior to and following viral infection. Briefly, the swine were divided into four groups designated ‘untreated’, ‘0 day’, ‘+1 day’ and ‘+2 day’. Each pig was challenged with 40 TCID50/ml of LHVA-93-3 PRRS viruses. Pigs in ‘0 day’ group were inoculated with a mixture of the virus and 2.5 μmole/ml A505, intranasally (i.n.). Pigs in ‘+1 day’ and ‘+2 day’ groups were inoculated with 2.5 μmole/ml A505, in 1 day or 2 days following virus infection, respectively. PRRS infection was monitored by three parameters, including (i) body weight loss during 14 days following virus treatment; (ii) lung virus titre; (iii) histological examination of lungs—sections were taken 7 days following virus inoculation.

type 2 PRRSV = details: after MTT screening of 10 candidates
Excerpt: Using various tetrazolium (MTT) colorimetric assay procedures^[xxxvi], these aptamers have been “screened” to identify the ones having the highest and fastest binding capabilities for detection and therapeutics purposes for both types of PRRSV. It should be pointed out that the aptamer having the quickest binding efficiency but not necessarily the highest binding strength is the most suitable one for the biosensor.

B1: A505: ssDNA aptamer binding type 2 PRRSV M-S-S-GP5 complex (nucleic acid)
DNA: GGGCGACCCTGAAGAGTTTGTAATCTGCGATTTTAAAGTTGAGTCGTCGCGAAACGGTGAAAGCCGTAGGTTGCCC
modifications: DNA, backbone and methylation of C not given here
effect on type-1 Lelystad PRRS virus [1]: has not effect | protection against infection of the cells (NVSL PRRS virus): ~70% | Reduction Factor (LHVA-93-3 PRRS virus [2]; Table 2, administered once with the virus): 17.1 | Δ (log TCID50), reduction of virus titer (LHVA-93-3 PRRS virus [2]; administered once together with the virus, Tilmicosin 60 mg/pig (1 mg/kg), A505 15 ug/Kg): 1.21 log TCID50 and 1.23 log TCID50 | reduction in virus burden (LHVA-93-3 PRRS virus [2]; administered once with the virus): over 10 fold | cell morphology of infected cells, light microscopy (LHVA-93-3 PRRS virus [3]; MARC-145 cells, virus in the presence of aptamer, FIG. 10b): destruction was inhibited and the cell morphology was largely conserved | viral presence by immunofluorescence (LHVA-93-3 PRRS virus [3]; two days incubation with virus and aptamer, FIG. 10e): almost entirely prevented | body weight loss (LHVA-93-3 PRRS virus [4]; 14 days, treatment groups +2 day, 0 day, +1 day vs control group, FIG. 12a): significantly lower weight loss and enhanced recovery | protection equivalent to lung virus titer difference (LHVA-93-3 PRRS virus [4]; '0 day' group): over 99% | difference in lung virus titer compared to the non-treated group (LHVA-93-3 PRRS virus [4]; '0 day' group, 2.5 μmole/ml A505 i.n. mixed with virus, 40 TCID50/ml, FIG. 12b): more than 2 log | protection in lung virus titer, treatment after infection (LHVA-93-3 PRRS virus [4]; '+1 day' and '+2 day' groups): Further protection | reduction of viral load in the lungs vs infected group (LHVA-93-3 PRRS virus [4]; all three A505-treated groups, six days after infection, p<0.05, FIG. 12b): statistically significant | lung histology, inflamed areas (LHVA-93-3 PRRS virus [4]; sections 7 days after virus inoculation, intranasal A505): reduces the inflamed areas in lungs | binding capabilities from biosensing and therapeutic perspectives (type 2 PRRSV): highest binding capabilities

Source: patent publication US11001846B2, “Aptamers, nucleic acid molecules, polynucleotides, synthetic antibodies compositions for detecting PRRS viruses and treating PRRS virus infection” (AEROVIRUS TECHNOLOGIES INC., priority 2015, dated 2021)
